Assay results reported in patent publication US20180134780A1 (Hoffmann-La Roche, published 2018).

Molecular target: T1, Human angiopoietin-2 (ANG-2) (human, UniProt O15123 19-496, limits assumed)
T1 construct: Bought (R&D Systems Cat. No. 623-AN) or produced in house; also called ANGPT2; huAngiopoietin-2
T1 sequence: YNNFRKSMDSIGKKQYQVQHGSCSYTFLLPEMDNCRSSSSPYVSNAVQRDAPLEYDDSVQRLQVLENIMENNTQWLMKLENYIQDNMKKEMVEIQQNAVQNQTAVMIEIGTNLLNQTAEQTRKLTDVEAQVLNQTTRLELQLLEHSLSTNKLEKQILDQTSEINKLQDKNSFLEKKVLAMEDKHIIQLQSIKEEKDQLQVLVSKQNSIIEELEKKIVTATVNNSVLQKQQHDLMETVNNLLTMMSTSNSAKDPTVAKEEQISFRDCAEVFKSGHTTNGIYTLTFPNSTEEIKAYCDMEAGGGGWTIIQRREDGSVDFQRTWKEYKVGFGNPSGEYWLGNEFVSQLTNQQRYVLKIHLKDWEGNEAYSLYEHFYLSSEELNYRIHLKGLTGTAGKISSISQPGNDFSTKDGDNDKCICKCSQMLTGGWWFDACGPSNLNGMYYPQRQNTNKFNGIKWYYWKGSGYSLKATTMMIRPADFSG
Test: ANG2/Tie2 receptor interaction ELISA (Experiment A): antibody dilutions pre-incubated with 0.2 ug/ml huAngiopoietin-2, coated human Tie2, bound ANG-2 detected
Procedure: Blocking of human ANG-2/human Tie2 interaction was shown by receptor interaction ELISA. 384-well Maxisorp plates (Nunc) were coated with 0.5 μg/ml human Tie2 (R&D Systems, UK, Cat. No. 313-TI or in house produced material) for 2 h at room temperature and blocked with PBS supplemented with 0.2% Tween-20 and 2% BSA (Roche Diagnostics GmbH, DE) for 1 h at room temperature under shaking. In the meantime, Dilutions of purified antibodies in PBS were incubated together with 0.2 μg/ml huAngiopoietin-1/2 (R&D Systems #923-AN/CF, R&D Systems, UK, Cat. No. 623-AN or in house produced material) for 1 hour at RT. After washing a mixture of 0.5 μg/ml biotinylated anti-Angiopoietin-1/2 clone (R&D Systems #BAF923, BAM0981 R&D Systems, UK) and 1:3000 diluted streptavidin HRP (Roche Diagnostics GmbH, DE, Cat. No. 11089153001) was added for 1 h. Thereafter the plates were washed 6 times with PBST. Plates were developed with freshly prepared ABTS reagent (Roche Diagnostics GmbH, DE, buffer #204 530 001, tablets #11 112 422 001) for 30 minutes at RT. Absorbance was measured at 405 nm.

B1: <ANG-2>Ang2i_LC06 (antibody, V domains shown)
VH: not shown
VL: QPGLTQPPSVSVAPGQTARITCGGNNIGSKSVHWYQQKPGQAPVLVVYDDSDRPSGIPERFSGSNSGNTATLTISRVEAGDEADYYCQVWDSSSDHYVFGTGTKVTVLG
notes: also called anti-ANG2 antibody
- IC50: 0.1 nM
